This note sets out measurements from patent US20100129288A1.

This experiment deals with neurofascin on purified rat DRG neurons (rat) (UniProt P97685). The experiment in a line: cell-based or functional assay.
Sequence of UniProt P97685 (P97685 25-1240, form in doubt): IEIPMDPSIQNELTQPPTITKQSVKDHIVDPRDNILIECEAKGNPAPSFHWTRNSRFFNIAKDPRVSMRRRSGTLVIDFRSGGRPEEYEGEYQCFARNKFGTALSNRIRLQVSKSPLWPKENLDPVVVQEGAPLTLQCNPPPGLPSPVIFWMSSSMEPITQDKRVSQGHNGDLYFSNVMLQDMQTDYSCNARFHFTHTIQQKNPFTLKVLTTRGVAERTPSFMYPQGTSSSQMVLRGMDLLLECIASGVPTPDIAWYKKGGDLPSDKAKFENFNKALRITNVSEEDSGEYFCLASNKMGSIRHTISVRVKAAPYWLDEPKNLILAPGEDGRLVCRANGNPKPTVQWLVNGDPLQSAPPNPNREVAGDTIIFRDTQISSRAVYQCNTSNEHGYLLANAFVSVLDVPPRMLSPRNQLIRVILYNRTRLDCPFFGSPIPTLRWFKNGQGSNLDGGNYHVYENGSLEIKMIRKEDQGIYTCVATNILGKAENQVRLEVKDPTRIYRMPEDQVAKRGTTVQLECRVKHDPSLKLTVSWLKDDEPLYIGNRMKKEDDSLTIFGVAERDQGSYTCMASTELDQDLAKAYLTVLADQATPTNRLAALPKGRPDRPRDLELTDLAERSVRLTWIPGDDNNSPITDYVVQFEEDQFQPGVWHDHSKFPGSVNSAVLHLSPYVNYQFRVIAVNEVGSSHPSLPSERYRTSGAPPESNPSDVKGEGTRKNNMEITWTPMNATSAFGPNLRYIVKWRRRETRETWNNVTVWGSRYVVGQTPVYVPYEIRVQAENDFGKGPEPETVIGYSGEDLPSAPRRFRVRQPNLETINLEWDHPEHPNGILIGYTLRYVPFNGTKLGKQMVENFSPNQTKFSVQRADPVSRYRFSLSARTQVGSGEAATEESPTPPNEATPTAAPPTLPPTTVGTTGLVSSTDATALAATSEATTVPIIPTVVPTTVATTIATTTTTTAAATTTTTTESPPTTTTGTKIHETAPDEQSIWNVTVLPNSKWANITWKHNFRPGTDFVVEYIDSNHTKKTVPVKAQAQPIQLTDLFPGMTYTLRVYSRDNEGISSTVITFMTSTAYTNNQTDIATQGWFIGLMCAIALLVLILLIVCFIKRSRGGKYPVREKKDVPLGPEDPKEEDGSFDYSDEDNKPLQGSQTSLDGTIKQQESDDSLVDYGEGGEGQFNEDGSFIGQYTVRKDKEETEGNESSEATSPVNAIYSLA

B1: OLF-Fc (Fc-fusion protein containing the olfactomedin domain of gliomedin) (Fc fusion, part only; not given: human Fc, part only)
chain, part: NDDTLVGRADEKVNERHSPQTEPMITSIGNPAQVLKVKETFGTWLRESANRSDDRIWVTEHFSGIMVKEFEDLPALLNSSFTLLHLPHYFHGCGHAVYNNSLYYHKGGSNTIVRFEFGKETPQTLKLEDALYFDRKYLFANSKTYFNIAVDEKGLWIIYASSVDGSSILVAQLDERTFSVLRHINTTYPKSKAGNAFIAQGILYVTDTKDTRVTFAFDLLRGKQINANFGLRMSQSVLAMLSYNMRDQHLYSWEDGHLMLYPVHFSSTAPS
B1 gave an OLF-Fc clusters co-localized with neurofascin clusters of 96%.
